The text below walks through data of the DeepSol protein solubility set.

The nature of this data set: soluble on expression in E. coli; label from the status in PepcDB or PDB records.
For the sequence “AVPTVVGIPDGTAVVGRSFRVSIPTDLIASSGEIIKVSAAGKEALPSWLHWDPHSHILEGLPLDTDKGVHYISVSAARLGANGSHVPQTSSVFSIEVYPEDHNEPQSVRAASSDPGEVVPSACAADEPVTVLTVILDADLTKMTPKQRIDLLNRMQSFSEVELHNMKLVPVVNNRLFDMSAFMAGPGNAKKVVENGALLSWKLGCSLNQNSVPDIRGVETPAREGAMSAQLGYPVVGWHIANKKPT”, the “soluble on expression in E. coli” value is given as “soluble”.

As to “MGSDKIHHHHHHMSLLSVEHLSHGFADKELYEDANFELNKEDHMGIVGQNGAGKSTLIKILTGETLPDKGRIIWQNKVTYGYLDQYADIPKEDTLYEFLTTAYAELFRQRDLMEKYYADYAENLDDKLLEKAGRIQENLDANNFYDIDTEINRVMTGLGLDDIGKDHIVSEMSGGQRSKIILAKLLLQNPDVLILDEPTNYLDTAHISWLADYLNGFEGAFMVISHDYDFLQKVTNCICDVSFNKITKYRGDFQSAMRQKDARKEAQLKAFEKQQVVIEKAENFIRKNKAGQRSTMAKSREKMLNRMEKIDPPSENLKGHFDFPYLDTGSQNAVAVNKLAVGYGKKQLLEPVTFSMSAGEKVAFSGFNGAGKSTLIKSILGVIPALGGEAHFSPSAKVNYFTQELIWDNPKLTPLETIQNQYPKMLPKTIRTKLAKCGINAADTMKPMKQLSGGEQTKVKLALMELIDSNFLIMDEPTNHLDDETKRALSEALQRFKGNLIVVSHEDSFYSQWIDKEINVEKLRLDRE”, the “soluble on expression in E. coli” value was “not soluble”.

On to “MRWKLLFALLAALLLAACSQSSERVVIGSKPFNEQYILANMIAILLEENGYKAEVKEGLGGTLVNYEALKRNDIQLYVEYTGTAYNVILRKQPPELWDQQYIFDEVKKGLLEADGVVVAAKLGFRDDYALAVRADWAEENGVEKISDLAEFADQLVFGSDPEFASRPDGLPQIKKVYGFEFKEVKQMEPTLMYEAIKNKQVDVIPAYTTDSRVDLFNLKILEDDKGALPPYDAIIIVNGNTAKDEKLISVLKLLEDRIDTDTMRALNYQYDVEKKDAREIAMSFLKEQGLVK”, for which the “soluble on expression in E. coli” value is recorded as “not soluble”.

For the sequence “MDPELQCIRECRLAQLKNNSGGTNGDRNSGANNGGGENSAPVGAAIANFLEPQALERLSRVALVRRDRAQAVETYLKKLIATNNVTHKITEAEIVSILNGIAKQQNSQNNSKIIFEAAALEHHHHHH”, the “soluble on expression in E. coli” value is “soluble”.

On to “MAHHHHHHMMEERYNPFTGYQTPRHQQQSYRHNGGAMSRGGWGERVDAPADKMKPVDWTRVKLVPGSWKVLDTKAIHRAAHAKAEVVPAKQLTEEESNEWRETHTISIFGEGCPPPLSNFDQLSAFVPAYLQKKLTAQGFTSPTAVQAQAWPILLRGRDMVGVAKTGSGKTLAFMVPALAHIAMQEPLRTGDGPMVVVLAPTRELAQQIEQETKKVLPHDLRCGCVYGGAPKGPQLGILRNGVHILVATPGRLIDFLEIKRVNFFRVTYLVLDEADRMLDMGFEPQVRAICGQIRPDRQTLMFSATWPKEIQRLAAEFQKDWIRINVGSTELLANKDVTQHFILTQEHAKMEELKKLLANHRNQRVLIFCKTKRTADDLEWQLKRWGYDAMAIHGDKEQRQREFILERFRKDPRLCLVATDVAARGLDIKELETVINYDFPMQIDDYVHRIGRTGRAGAKGEAFTLITKREQQITPAVVTELIAIVDRAQQQVPDWLREWGEQRPRYQVMKRNRNMMGFGSSRHMPALYNGNRASFDAAGGGHPGNNNGTAGNKRGGEGGVFGLARHGSNGAAPFSSSRIEYKRFDDSDDDDGAAPPAKKRSK”, for which the “soluble on expression in E. coli” value is “soluble”.

“MGSDKIHHHHHHESSKSGYQTTGENNSSDYQGIIEDGEYKTSKSRGVGISQNSDNLLNLKSFEAGLTTISKDHFSTKSYIFQEGQYLNKATIQDWLGRKSSSNPEGLNPSDNGKKEANKRNPIYVQQIEEQDYMKQNNGKLELAGMTIGIGMNQKDYYQKEQYGATYSTTISKEKRIEEGKIAAKKVLARVRQKVGNNVPIVIAMFAQAPNDSLVGGYFYSYTVSKSGTDIGSWTETNIKSYVLPATEDNKLPNDNDSTSFDNFQKEVKNFFPNISNVTGQGQYKDKTLQGLHITITTQFYSETEITSFTQYVAQAAKSYLPSGIPVDIKINGSDGETQSFVSTTGGNGGYYTHVFGSY”: the “soluble on expression in E. coli” value is “not soluble”.

On to “KVLTIKSCNIHSGIGIRPHAQIELEYQGKIHKEISEGDGGYDAFMNALTKITNRLGISIPKLIDYEVRIPPGGKTDALVETRITWNKSLDLEEDQTFKTMGVHPDQTVAAVHATEKMLNQILQPWQI”, for which the “soluble on expression in E. coli” value was “soluble”.

As for “MQSVNRKSNKGATANIDAQEPFSVLLMGIDTGDLGRTEQGRSDTTMVVTINPKENKSTMISLDRDILTDIVGNDTQDKLNHAYAFGGAEMAINTVQELLDIPIHHYVSINMKGLKDLIDAVGGIEVDNTIGEFTLDGITVPAGKIKLDGTTGLAYARMRHEDPEGDVGRQRRQREVVEKIVRKVMSFDGVSKYRKILDAVEANVKTDLTWDDMMDIQSKYLSAFKTIDSEQLQGYSATIDDIYYQVLDPNSLYKTQTTLRKQLGLKEHASEREKDLAFYNQFSYAVTDTALIGESGDSSANSSTSSSSTADTTAGQTEYNGNTQQAAEGTYDPNTYVDPNAYTDPNAYADPNTYVDPNAPQYLEHHHHHH”, the “soluble on expression in E. coli” value is listed as “soluble”.

For “MDTLHQQLCTHSGSTSPKGLYLWGDVGRGKTFLMDLFYDALPQRGKLRLHFHRFMARVHQALKVHAGQRDPLKLIAKNLAKECKVLCFDEFFVSDIGDAMILAGLFETLFAQGVVLVATSNIPIERLYENGLARHRFLPCIALLQAHTQMLHLNGKQDHRLHALSAKPSAEALAATSHNIGLTGTLDFDGIFAALTQNSPSIKDGKLRVCQREISVIRATTENQLPSVAWFDFNALCDGPRSQLDYIEIASRFKVLMLSNVPRLGGEVKGWIRARGTEDGTGDNQAATTGERQLSYAVNDDPARRFISLIDELYDQDVSLYLSCDVPLTELYQGGALSFEFRRTYSRLIEMSHSAAMKLTY”, the “soluble on expression in E. coli” value was “not soluble”.

On to “MGNSLHQIKCCTSFIHCQNAAVDAPSIAKTLADYLYPAFFHQDLPAPLKISVTGCPNQCGGGVEADIGISGYFATVPRVDDAGLMAANIDFGHLISGCPVGAIRPRQVEGGTTVVINAERCIRCTSCIQVAPEGIKPGPERFVAIAVGGHGGNNRRGPEMAAVVFSRVPARPLDYAAICERVQRIIACWRDRGKRGERLAGFLERLEHHHHHH”, for which the “soluble on expression in E. coli” value is reported as “not soluble”.

As to “MAAAPFDPAEVFQVFGMRRVDSASFDEQVVQAPGDDLRCVFLWGQDCYNCGIFKQTALLQRQALLALELSWFEADVYADEALGRRFSLHGVPTFVLYRSGKRLGRVTGWPGLPQFSAAMQRLRDGT”, the “soluble on expression in E. coli” value is on record as “not soluble”.

As to “MGSDKIHHHHHHMAKEEALAEAQLDSNRKKIQYRNNNISTQFVTPKYISLLIEKYWHEKNKFRRLLIVIECSKYKNESTIFFFRQVMSGEKDWFIRNYCLRILQRFDEVVYLPPKGKGAQEKYNTLVKHFGCDYKEDIGRTPEDIVKELYENDYIEHAKYFDAFISHAVSNADMVDEFVFKLNSLGLVAFVDWKSDRQDLNRSKLSHYTPTILELRMRQSKNLILIRTKESDLSSWVTWEINYFSKLGKKIAVLNLDNEHGKPHELIDTYPTVRIIDGNILVFNKSKQHKLVDWINES”, the “soluble on expression in E. coli” value was “not soluble”.

As for “MITIRNKIGQMLIMGFHGSELHDNSPVAQWLSNDGLGGVLLFDKDLSTGIYGKNLRNQAQIKQLIRQLNRYASMISGGNDNLPLFTAIDYEGGVVDRLSKIEGCPPTMKARELAKLSSDDFDEEVTQMAMTLQSLGFNLNFAPVVDLNLNAHAGIIGNLGRSFSSNPEVTIRLAKQFVDVFSRYGIACAYKHFPGHGSATGDTHEGFVDVTETFQTDELIPYRSLLKDLSNPFMVMTAHVINKHLDSKGLPATLSYDVLTLLLRQSIGYDGVIISDDLQMHAISNHYSLEDALCLTINAGADMVIFANQLGTITPPEVIDVIEKLVIDKQIPYQRIDEAYRRIVRLKQQIICSELINT”, the “soluble on expression in E. coli” value is “not soluble”.

In the case of “MGSDKIHHHHHHMNPQTRKRQNLTAVYAALLQLMSQKPLSRISITELCQHAQVSRTYFYRNFANFDQIILAYQKQTILQYLRQLPRQSKVKLQVLMTQYFTLMQQMAATNALLIKNEKTQIFIQSFEAVFALLIKQDRIIGSSNTALRQPYYTAYFSGAVINMLVHWQQNGMVETPAYLAQQVTRFTLRDNESRS”, the “soluble on expression in E. coli” value is “not soluble”.

Take “MSSGYSSLEEDEDFFFTARTSFFRRAPPGKSRSGQPDVEKEKETHNYLSKEEIKEKVHKYNSAVTDKLKMTLNSNGIYTGFIKVQMELCKPAQPSPEPSSGGCMNTLHISSTNTVGEVIEALLRKFLVTESPTKFALYKRCHREDQVYACKLSDREHPLYLRLVAGPRTDTLSFVLREHEIGEWEAFSLPELQNFLRILDKEEDEQLQSLKRRYTAYRQKLEEALGEVWKPG”: the “soluble on expression in E. coli” value was “not soluble”.

On to “MSLTEYVHGYSEREALRLSEQAETLEKLLHHDTVYPPGAKVLEAGCGIGAQTVILAKNNPDAEITSIDISPESLEKARENTEKNGIKNVKFLQANIFSLPFEDSSFDHIFVCFVLEHLQSPEEALKSLKKVLKPGGTITVIEGDHGSCYFHPEGKKAIEAWNCLIRVQAYMKGNSLVGRQIYPLLQESGFEKIRVEPRMVYIDSSKPELVDGFILKTIIPMVEGVKEQSLKMQIIKEEEWEKGIEELHKTAEHGGTFCYTFFKGWGTKEGHHHHHH”, for which the “soluble on expression in E. coli” value was “soluble”.

Regarding “MAHHHHHHMASTDEVVLSENRALRVECEAQEVEIAQLKNYLHMSVTKPDLCFGQQRVTLNKCLNSFPEKAWQKLIDETPEVDSPAIITALEDQLADKNKHLTACLQEISNLRSRSGDGKTKPDSITDGNTAHLLSQITFLHNEVERLEQQVNAVRAAGKEELRVMTIEYNDKLQLREKENRLLTEQLRGRKNHLADGEDMAARTKTLESQLATAGIRKKFFTHREKQFPGKNPKIRGCY”, the “soluble on expression in E. coli” value is listed as “not soluble”.

“MGSDKIHHHHHHMLRPHHSDNEQITLRSLLQSYRDQTTSNVVWGKIFEDFVTKYLMHDPLHYGRYEKVESYYEWAKERKDWNKNDIGIDLVAKLRHQESYVAIQCKFYKADHQISKKDIDSFIAESGKKIFKYRLLVDSTEVELSDNVNAMIKGQAIPIYRIDLRHMENSRIDWQTYATKKEVVLKSIKKPLPHQEPTMRPRAWIKAFSALAVASFK”: the “soluble on expression in E. coli” value is recorded as “not soluble”.

Take “MLADKVKLSAKEILEKEFKTGVRGYKQEDVDKFLDMIIKDYETFHQEIEELQQENLQLKKQLEEASKKQPVQSNTTNFDILKRLSNLEKHVFGSKLYD”: the “soluble on expression in E. coli” value was “not soluble”.

“MGGNMEDVKMKCGLEIHVQIDTKSKLFCNCSTNYLDAEPNTNVCPVCLGLPGAKPLPPNKKAVEVAIMVAKMLGCKIVVDEDIYFQRKHYDYPDLPSGYQRTSTPIGVDGEFMGIGIHEVHLEEDPGQYNPSFGIVDYNRSGTPLIEIVTKPDIKSPEEAREFLKQLMTLFRYLGCLRGEGTMRADVNISIEYMGVQGNRVEVKNVNSIKGVYKVLKYELIRQKNIIKRGGEVKRETRAFLESQMITKAMRSKETAEDYRYIPDPDIQPIVISEKWVKEIEEKMPETPLAKKKRFVEEYGIDEEDAKVLVSDLDMAEMFEEVVKSLGVNKENVDLAVTWIRNELRRSLQYHKVDLYESGVKAEHIVELIKLIKEGVISQKIAKEIVDLLVINRGKKMPKELVEELGLTVIRDEDALVKAVEEAIKNNPKAVEDYLNGKKEALNFLMGQVMRLTRGRADPKRVIELLKERLDK”: the “soluble on expression in E. coli” value is “soluble”.

With “MIDVMQIQEILPHRYPFLLVDKITELKVKEVVLGYKNISISDHVFMGHFPGHPIYPGVLILEGMAQTGGVLAFESMEDKVDPKSKVVYFTGIDGAKFRNPVRPGDRLDYEMSVVKNRGNMWIFKGQAFVDGNLVAEAELKAMIVDK”, the “soluble on expression in E. coli” value was “soluble”.
